The nature of the series: soluble on expression in E. coli; label from the status in PepcDB or PDB records.
Turning to “MASGENLAPRDAKVISVILRSLGIEECEPKVIIQLLEFAYRYTTDVLEDALLFAKHTGRTHITTSDVKLALQTKVGRHFVPPPPRQYLSEISTMVNSKPLTIPDGENLIRVPPSSSALLNLDYEVLRKDSDKKRRIY”, the “soluble on expression in E. coli” value is reported as “not soluble”.

As for “MSLTTELVDWTHEQKCRKAVAALEKNGFTAVYCPSGREAFDYILTEAVDARSIGFGGSLSVVDLQVIDRLREMDKELLIHGLPGLSLEERVAIMRRQLTCDLFLTGTNALTLSGWLVNIDATGNRVASMFFGPRTVIVVAGRNKIVDGGVTEAIARVKEWASPPNARRLSYKTPCATTGFCSDCNSPDRICRITTVIDRNPRLTDLRVLVVNEDMGLLEHHHHHH”, the “soluble on expression in E. coli” value was “soluble”.

With “MNRKPRTRSTIVPGRKMITEIVALREAGLDDTRPSYLEEPTVIVDESMMNDSANLEEREWRKQGLSEKQMFAILEKRKQTQLNNARKRLEKEMYGAKTFKELIACREYSECESDSENTVNQNVRSASVFAIPALPKHISEKSMMGSPIANSRGSGKAGLSCSTPKSSSDTSMRSLRSLDISHVVNTDRLDAERVTVHTKSVVIPTILEERESTLQKTLTIEKNHSSQLQKTFTVAEDAPEELQKTVTIEKNQSSEMQRTFTVAKDASKEQSQLQRTVTIEKNQSSQLQGNFTVAKDAPEELQKTVTIEKNQSSEMQGTVTVAKDAEHSSLQKTFTKPTEKDESSLQRTFNVANRDENNDSTLQKTFIIEERDAYEQGTTSVGVKPPVLAQNTMEGGEKRRTSKVTSDERERRNASISNPLHNSMLEKEEIQSPGANFFKHPRKKIRPVVQTPPRIKATSRLSTESNKERTIEMESVAEERTMEADSIGSSYISPTFNASRVSPVPEVPEKVEPMHVSKAATPKSIRHTDNSIRNIGPTNNVECARAALLSTPTRMDIVDSVNRVTPARRYEQPTFASLVKRMNMKDANRLLEETSRKNTPAKTTATTSSAAVRMVLEDDEEDQATEVIEKRSENGGVIVDGEDEAADSSNRSLNIELNALTVNEEPAHDISAIDFPEDDTNEMRSSSDEEEMEARPDPRKKSSRRLGLLSDSIALGLASSSRRRPNDTFVDETWYPEPNSKGNRRPRTHRGMKLKEHQLMKPEDAPDGVRRSTRVRVKPVRSWLGEQPVYVNSPISGCKRLTGVTAVVIKDPRLCYYRTADVRTATERELKDKANKRALAQEKKQQRQNARSGRRHDSDDDEEDDM”, the “soluble on expression in E. coli” value is “not soluble”.

For “NISYFSIGSGTPIIFLHGLSLDKQSTCLFFEPLSNVGQYQRIYLDLPGMGNSDPISPSTSDNVLETLIEAIEEIIGARRFILYGHSYGGYLAQAIAFHLKDQTLGVFLTCPVITADHSKRLTGKHINILEEDINPVENKEYFADFLSMNVIINNQAWHDYQNLIIPGLQKEDKTFIDQLQNNYSFTFEEKLKNINYQFPFKIMVGRNDQVVGYQEQLKLINHNENGEIVLLNRTGHNLMIDQREAVGFHFDLFLDE”, the “soluble on expression in E. coli” value is “not soluble”.

In the case of “MGSDKIHHHHHHMQFLKVYSVFGEEVVGCHVRIENLSVACSVVSAGGTHPSEKCVCNHEFSSVSLHQKKHPHLEKLLETSRPIKLDSSSKVLILSDLHMGNGGRRDEFRRNSELVRSMLQDYYLPGGYSLVLNGDIEELFKFSVEDITKVWGHIYDLFLQFEKNGFFWKTYGNHDSDLFEERNYPLSKHLLESIRFQYGDEVMLLFHGHQASILLWETYPLVSRAVVLFLRYVAKPIGIRNFSTAYNSRRRFAIEKSIYEFSNQAKIVSIIGHTHRPLFESLSKVDHLKYKIEELCRQYPSALPEERLAIQERIGELKAMLDACFTEGKKIGLRSGRYNNIAIPSVFNSGCAIGKRGVTALEIDGDRIRLVYWFKEKQGRRFVSDRNSEPEQLGDTGFYRIVLNEDHLDYVFSRIRLLA”, the “soluble on expression in E. coli” value is listed as “not soluble”.

In the case of “MPQDYISYIRSKVGHDKIILNFAGGILTNDDGKVLMQLRGDKKTWTIPGGTMELGESSLETCKREFLEETGIEVEAVRLLNVYTHFEEVYPNGDAVQTIVFIYELTAVSDMAIDNFHNEETLKLQFFSHEEIAELESVSAKHRLMLEEYFSDSFAMGH”, the “soluble on expression in E. coli” value is recorded as “not soluble”.

For the sequence “MSLAQGIIENHLSKRSALLEQEKTSRHDYAFKQSMSPVAKTAAKVLADIRKKELKSIWSPTTTSNEKRDLKDVTFPGMSFTLSRDRMQKTALWKIVSAMPKGCLLHAHMEAMIDIDWMIEQAIELPGYYISSPVPLCPRTGSAGKWSEPFQFSYRPRLGSGANARNGSEPEISIWQAGYTPGRLVPVAAAAKMYPGGVEAFKAWAVSRMTINEEEALEHHHGIDDVWDKFRSCFLAIGGLFFTEPIFRRCIPRLLQQLHDDGIKYVELRLAPNPFYREGSNEAEPDFLYFLQCFQEEVDAYMSSPTGRGFWGAKIIWTAIRSFPDDLIKESMIHCLNSKKAYPSVITGFDFVGQEDAGRPLVDLLPLCKWFQQQCADEQLQIPFFLHAGECLGDGNDTDSNLVDAILLNSRRIGHAFSLYKHPLLIDLVKDKNILIEMCPISHEVLRLTSNILMHPMPALQARGVAVSLNNDDPAVLGHGKNGLSHDFYQVTAAFENTGLAGLATMAEDSIRWAAFEDETDSEWLQGIDGKGNGLKASRLAEWRTAFDEWCAWVVQEFGAESQIEGHHHHHH”, the “soluble on expression in E. coli” value is reported as “soluble”.

For “MTAFQSLKPSTLSREDFVKAFADIYEHSPWVAEKAYELGLDASVDQIETLHQRMSDILLSADHASQLALINAHPDLAGKAAVQGQLTEASTNEQAGAGIHQCTAEEFQRFTELNDAYKAKFKFPFIMAVKGSNRHQILAAFETRIHNSVDTEFKCALAEINKIALFRLLTLLEHHHHHH”, the “soluble on expression in E. coli” value was “not soluble”.

Consider “MMLITERRSPFYPNIQNVPPSVIRKLVKNKAITLIDVRQPWEYEDHHIPGSILLPLDYFKELFPLVLSKNNLVKNGVAIICEHANRSTWLVYTEPSLFKEVKVYNMLGGIELWMIMGYEIEKGMDDNGTLWYKLLTKNLGLEHHHHHH”, for which the “soluble on expression in E. coli” value was “not soluble”.

For “MKNPQSKADDILQCARTLIIRGGYNSFSYADISQVVGIRNASIHHHFPSKSDLVCKLVSQYRQEAEAGIAELEKNISDPLEQLRAYIGYWEGCIADATHPFCVCALLASEIPVLPETVVLEVRAHFRSLSDWLTAVLERGIAQGRLVLTGTARANAEIFMATVHGAMLSARAHGDAATFGAITRPMLERITA”, the “soluble on expression in E. coli” value is listed as “soluble”.

Consider “MSLENPYQLVEDIEGIGFKRADNLAEQIGIAADSPRRIRAAILHQIFQHAVQTGDTYVPAETLLQQTIRILETSRPIEIQPDQVATVIIQLVEEGKIQQEETNLYENSLYFSEWGIGNSIQRLLSRKKEIHYPEKEVQKNIRRIEKIFGIQYGPSQEQAIAEAIRSPLFILTGGPGTGKTTVINGIVNLFAELNGLELDPSKYTQEIFPILLAAPTGRAAKRMNETTGLPASTIHRLLGLNGREKTPSVSTKELEGGLLIVDEMSMVDTWLANTLFKAIPTNMQVILVGDKDQLPSVGPGQVLHDLLEIEQIPKMELNQIYRQGDGSSIIPLAHEIKEGRLPKDFTKNQKDRSYFRSDAYQIEPLISKIVEKAKNKGFRAQDIQVLAPMYRGPAGIDALNKMMQEIFNPGKPGKKEVHWNDTVYRIGDKVLQLVNTPELNVFNGDMGEITGIILAKDSEDKVDELVIQFDANEVTYKRNEWNKITLSYCCSIHKSQGSEFKMVILPMVHQYQRMLQRNLLYTAVTRSKELLILLGEEQAYVTCVANESASRMTTLKSRIMDNDKMNEGHHHHHH”, for which the “soluble on expression in E. coli” value is on record as “soluble”.

Consider “MAMSTKLSVAIHILSLIETGPQEQVTSEYIASSVNTNPVVVRRLMSQLKKAGLIHSMRGANKNTLLKKPEEISLYEIYTAVELEREIFNIHQNPNPNCSVGANIQSVLETEFTKVQQKMEEELKSITLADVIHEIEVKRDK”, for which the “soluble on expression in E. coli” value was “not soluble”.

As to “GHMVDLEQEFALGGRVLAFHGPLMYEAKILKIWDPSSKMYTSIPNDKPGGSSQATKEIKPQKLGEDESIPEEIINGKSFFIHYQGWKSSWDEWVGYDRIRAYNEENIAMKKRLANEAGSTGSAPATGGVKKPHRYR”, the “soluble on expression in E. coli” value was “soluble”.

Take “MGSDKIHHHHHHMYEDYYRFSAKPFQLNPDPRFFYGSKGHKRAMAYLDYGLSLGEGFIVITGEVGAGKTTLVRNLFRQLEAHNLVAAQLVSTQLDAEDTLRSVAASFGLEHEGLTKSALLKNLESFLAAAARQGKRALLVVDEAQNLTPRAVEELRMLSNFQNDERSLIQTFLLGQPEFRGILQSPDMQQLRQRVVASYHLGPLDADETRGYIEHRLRTVGWQGMPGFDDDAFAALHRFSGGIPRRLNTTCDRLLLFGFLEEKRHFGEAEVDEVIADLRSEVAHQDFDRGAKPDARAADAFYAEDGGRLAQRIEQLERSVNRILPIVRKILYTVSEREAANDDTPQGPHDPAR”: the “soluble on expression in E. coli” value was “not soluble”.

With “KETAAAKFERQHMDSGGGGSGHMENGYTYEDYKNTAEWLLSHTKHRPQVAIICGSGLGGLTDKLTQAQIFDYGEIPNFPRSTVPGHAGRLVFGFLNGRACVMMQGRFHMYEGYPLWKVTFPVRVFHLLGVDTLVVTNAAGGLNPKFEVGDIMLIRDHINLPGFSGQNPLRGPNDERFGDRFPAMSDAYDRTMRQRALSTWKQMGEQRELQEGTYVMVAGPSFQTVAECRVLQKLGADAVGMSTVPEVIVARHCGLRVFGFSLITDKVIMDYESLEKANHEEVLAAGKQAAQKLEQFVSILMASIPLPDKAS”, the “soluble on expression in E. coli” value was “soluble”.

As to “MQTFGSRGEKRTFEMLTNEVEYQHYRFSFANNPATAAGIFQLAEIELTVVADAPLVDFASNISRAEIGENVQFWDRSLANPTGWQWTFEDGEPATSTNRNPAVTFTSLGAKSVTLVASNDKGSNEKVQEQVVHIWDSQNPWAGYVKPTVTLVAHKPEHEGQIAFSRVMPDIEAVIHDISLQIVKVLYKDVAEAPLFKTVTFETDEYDFPAAKSGTDEDMILMMDVAHLANKAAEGDDALRDEVIGMLWHELTHGYNNSPNSGEYATGDEYHSYLESLANYMRIKAGFHESRRVGIKWVDNWNVDAYEQTSFFLEWVANSHRSVDFIYLFNKAAGDLKEWSFEAAFKSIFGEDKGVSIFWQEYHDAQGIEPPYPTPVDGYRNFAVDEGVSISTNATTVIIPDWDAYEGEDKLIDNNVTKKFNAFIEGTWWLEEHASHLFPINDITNVEVTFELPDAIVLHKYSVTTGNDNPQRDPTLWTISGSVDGEVWTQLDSDNYPSDPERLITFHYDIDDAVTAYKYYQFVFENTQPAGDSIGGDNGRLVQIGEIALLTEELEHHHHHH”, the “soluble on expression in E. coli” value was “soluble”.

With “MFVRICAMFGFVSDLLTAAVSSLDELLQDTPAHQIILGTAALYFLYNQYHNPSISRWYRSRNNASMKQRIIDSAYALAKNLPGVNQIIEKELNKELSSTREKLRIQRSGMTLREEIPEEGLSPQDILSAFDVDVEKCHFDFLSVTNDSPEREFLVERGDGKDSGALYAIHPKELTELLKEVYGATALTNPLHDKWPRINAMQAEVIRWCQNLFHGSKECYGLLTHGGTTSIIEAMAAYVIRARAKGIDYPEIVVPETAHAAFKKAAELTGAILITVPVDKKTGAVNPKVMSSYITRNTAVIVGSAPSFMNGIHDPVSELGQLAKKKNVPFHVDACLGGFLTAFLDTSSEPMDFRVPGVTSISADLHKYGCCPKGTSVCLFSEDSPALSVYAALNWSGGLYATPGILDGSTSGARVAEVYATLSYYGKNKYQEIAKSIITLRNAIQKELTTLLEEGNGLTSEDIYVYGNPQWSILGFRSNTCNAHFIADELEKRGWKLNLLQNPDGFHLCLTHVHTLVKGFETQFIKDLREAVIDVKNYPPGKKPSGNVKVYGAVGMMPIELQREICKQYQKARLNYTSASPGSLRIFTNVPVEEDEGLRNRKTEKYKV”, the “soluble on expression in E. coli” value is reported as “not soluble”.

Turning to “MDQFSEPEETQVEQVENPDRNEAGYEVCNQSGENLSVAIAYFDTSIDSYRSEGWWNLDQSKCQFFPNLLDSVDEVYVFAESDQTLWSGDFPFCMQEDAFEYPDANRDRCPSPAYSKGFLKVEVGDAKTWTTLEHHHHHH”, the “soluble on expression in E. coli” value is listed as “soluble”.
